The data set concerns the molecule itself. The experiment in a line: SEC.

B1: Lac repressor (first 331 residues, dimeric, without the C-terminal tetramerization domain) (domain or fragment)
chain: MKPVTLYDVAEYAGVSYQTVSRVVNQASHVSAKTREKVEAAMAELNYIPNRVAQQLAGKQSLLIGVATSSLALHAPSQIVAAIKSRADQLGASVVVSMVERSGVEACKAAVHNLLAQRVSGLIINYPLDDQDAIAVEAACTNVPALFLDVSDQTPINSIIFSHEDGTRLGVEHLVALGHQQIALLAGPLSSVSARLRLAGWHKYLTRNQIQPIAEREGDWSAMSGFQQTMQMLNEGIVPTAMLVANDQMALGAMRAITESGLRVGADISVVGYDDTEDSSCYIPPLTTIKQDFRLLGQTSVDRLLQLSQGQAVKGNQLLPVSLVKRKTTLA
On to B1, for which the binding result is given as “binds”.

These data come from paper PMC3664820 (Nucleic Acids Research, 2013).
